From US20090325867A1, “RECEPTOR-SPECIFIC TUMOUR NECROSIS FACTOR-RELATED APOPTOSIS-INDUCING LIGAND (TRAIL) VARIANTS” (MEDICAL RESEARCH COUNCIL, priority 2005, published 2009)
“Also recorded” adds a separate entry of the source.

B1: HGS-ETR2 (antibody, INN chains, looked up, V domains shown)
VH: EVQLVQSGGGVERPGGSLRLSCAASGFTFDDYGMSWVRQAPGKGLEWVSGINWNGGSTGYADSVKGRVTISRDNAKNSLYLQMNSLRAEDTAVYYCAKILGAGRGWYFDLWGKGTTVTVSS
VL: SSELTQDPAVSVALGQTVRITCQGDSLRSYYASWYQQKPGQAPVLVIYGKNNRPSGIPDRFSGSSSGNTASLTITGAQAEDEADYYCNSRDSSGNHVVFGGGTKLTVL
B2: TRAIL.R1-5: 6His TRAIL 95-281 with 193Ser, 199Val, 201Arg, 213Trp and 215Asp (protein)
chain: TSEETISTVQEKQQNISPLVRERGPQRVAAHITGTRGRSNTLSSPNSKNEKALGRKINSWESSRSGHSFLSNLHLRNGELVIHEKGFYYIYSQTYFRFSEEIKEVTRNDKQMVQYIYKWTDYPDPILLMKSARNSCWSKDAEYGLYSIYQGGIFELKENDRIFVSVTNEHLIDMDHEASFFGAFLVG
modifications: biotin (site not stated) in the DISC analysis only; not biotinylated in the apoptosis assays
notes: 6His TRAIL 95-281 with 193Ser, 199Val, 201Arg, 213Trp and 215Asp

Tests used:
Jurkat cells = experiment: Apoptosis by phosphatidylserine (PS) externalization in Jurkat cells; type: cell-based; settings: for inhibition of induced apoptosis by TRAIL-R1 blocking Ab: 30 min pre-incubation with Ab (5 μg ml^−1); for ability to induce apoptosis in Jurkat cells (in words): PS externalization, compared with wt TRAIL
Experimental: Cells were also exposed to HGS-ETR1 or HGSETR2 (1 μg ml^−1). C: Ramos or Jurkat cells were pre-incubated for 30 min either alone or with TRAIL-R1 blocking Ab or TRAIL-R2 neutralizing Ab (5 μg ml^−1). […] D: Ramos and Jurkat cells were exposed to wt TRAIL or TRAIL mutants as described above and processing of caspase-3 and -8 determined by Western blot analysis. The asterisk indicates a non-specific band. The lower panel of the blot for detection of the caspase-8 p18 subunit was exposed for twice as long as the upper panel. Apoptosis was assessed by phosphatidylserine externalization and results expressed as the Means±SEM of at least 3 separate determinations. […]
(§1) Apoptosis was quantified by phosphatidylserine (PS) externalization in the presence of propidium iodide as described (MacFarlane et al., 2002 ibid.). Samples for Western blot analysis were prepared and caspase processing detected as described (Inoue et al., 2004 ibid.; MacFarlane et al., 2005 ibid.).
Ramos and Jurkat T cells (clone E6-1) were cultured as described (MacFarlane et al, 2005 ibid.). The breast tumour cell line, MCF-7 (clone F43) was cultured as described previously (MacFarlane et al., 2000 J. Cell Biol. 148, 1239-1254). Cells were cultured for either 4 h (Ramos and Jurkat) or 6 h (MCF-7) with His-TRAIL (MacFarlane et al, 1997 J Biol Chem 272, 25417-25420), HGS-ETR1 or HGS-ETR2 (Human Genome Sciences), or a mutant form of His-TRAIL (MacFarlane et al, 2005 ibid.). Samples were analyzed for apoptosis, Western blotting, or TRAIL DISC activation as described (MacFarlane et al, 2005 ibid.; MacFarlane et al. 2002 Oncogene 21, 6809-6818). Mutants of His-TRAIL (residues 95-281) were generated using the Quik-Change site-directed mutagenesis kit (Stratagene, Calif.), confirmed by DNA sequencing, expressed in E. coli and purified as described (MacFarlane et al, 1997 ibid.). For siRNA targeting of TRAIL-R1/-R2, MCF-7 cells were seeded into six-well plates immediately prior to effectene-mediated RNAi transfection with either a negative control siRNA (30 nM, Ambion, #4611), or preannealed siRNA oligonucleotides for TRAIL-R1 or TRAIL-R2 (30 nM, Ambion), with the sequence and validity described (Ren et al, 2004 Mol. Biol. Cell vol 15 pp 5064-5074). After 40 h of transfection the cells were collected and total TRAIL-R1 or TRAIL-R2 levels assessed. Where indicated, RNAi transfected MCF-7 cells were either left untreated or exposed to wt-TRAIL and apoptosis assessed by the extent of Bax activation, determined using the conformation specific Bax MAb, clone 3 (Dewson et al, 2003 Oncogene vol 22 pp 2643-54).

primary CLL cells = experiment: Apoptosis in freshly isolated CLL cells after depsipeptide; type: cell-based, human; settings: depsipeptide 10 nM 16 h, then 6 h ligand or antibody, FIG. 2C
Experimental: (§2) After exposure of the cells for 30 min, DISC complexes were isolated and analyzed for the indicated proteins by Western blotting. To provide an unstimulated receptor control (u/s), biotinylated wt or mutant TRAIL was added to lysate from untreated cells. C: Freshly isolated cells from patients with CLL were incubated for 16 h either alone or in the presence of depsipeptide (10 nM). […] The different symbols used indicate data from six individual patients and the solid line indicates the Mean.
Ramos, an Epstein-Barr virus-negative Burkitt's lymphoma cell line, and Jurkat T cells (clone E6-1) were cultured as described (MacFarlane et al (2005 Cell Death and Differentiation vol 12 pages 773-782)). Blood samples were obtained from CLL patients, with patient consent and local ethical committee approval and CLL cells purified as described (MacFarlane et al (2002 Oncogene 21, 6809-6818). Cells were incubated for 16 h with depsipeptide (10 nM), provided by Dr. E. Sausville (NCI, USA). Cells were then cultured for a further 6 h with either HGSETR1 or HGS-ETR2, agonistic mAbs to TRAIL-R1 or -R2, respectively (Human Genome Sciences, Rockville, Md.), His-TRAIL-LE (a recombinant TRAIL with low endotoxin—Alexis Corporation, Nottingham, UK), His-TRAIL, a similar form of human recombinant TRAIL (MacFarlane et al (1997 J Biol Chem 272, 25417-25420)) but not further purified to reduce endotoxin levels or a mutant form of His-TRAIL as described (MacFarlane et al., 2005 ibid.). Cell lines were also pre-incubated for 30 min with a TRAIL-R1 blocking Ab and a TRAIL-R2 neutralizing Ab from Alexis and R&D systems, respectively, prior to exposure to TRAIL. Freshly isolated cells from patients with MCL were isolated, purified and incubated with different forms of TRAIL as described above for CLL cells. Samples were either analyzed immediately for apoptosis or stored at −80° C. for subsequent Western blotting. Other methods and reagents were as described (Inoue (2004 Cell Death Differ 11 Suppl 2, S193-206); MacFarlane et al., 2005 ibid).
as §1

[1] = test system: TRAIL DISC in Ramos cells; experiment: DISC analysis with biotinylated TRAIL in Ramos cells; type: cell-based; settings: biotinylated ligand 500 ng ml^−1, 30 min
Experimental: as §2
Ramos or Jurkat cells (5×10^7 cells per treatment) were exposed to biotin-tagged recombinant His-TRAIL (biotinylated TRAIL) or one of its mutant forms (500 ng ml^−1) for 30 min and then DISC formation assessed as described previously (MacFarlane et al., 2002 ibid.).

Row | Molecule | inhibition of induced apoptosis by TRAIL-R1 blocking Ab (Jurkat cells) | ability to induce apoptosis in Jurkat cells (in words) (Jurkat cells) | sensitization of CLL cells to induced apoptosis by depsipeptide (primary CLL cells) | concentration-response of apoptosis compared with wt TRAIL (Jurkat cells; 4 h, FIG. 1A) | % PS+ cells, Jurkat (Jurkat cells; 4 h exposure, 500 ng ml^−, Mean ± SEM of at least three determinations) | DISC formation: receptor bound, FADD and caspase-8 recruitment [1]
1 | B1 | not | potently induced apoptosis | not | – | – | –
2 | B2 | blocked | lost much of its activity; also recorded: low levels of apoptosis | sensitized CLL cells | much less active than wt TRAIL | 20.0 ± 2.3% | bound predominantly TRAIL-R1 together with a small amount of TRAIL-R2
